Data set [1] has as its target His-SAMD9 (Homo sapiens, UniProt Q5K651 1-1589). In words: EMSA.
Data set [2] concerns the molecule itself. Put plainly: native gel or EMSA. (In general: Mobility shift assays separate free from complexed probe on a gel.)

B1: 15-bp dsDNA (dsDNA)
DNA 1: GATAAGGACTCGTAT
DNA 2: ATACGAGTCCTTATC
Regarding B1, the binding result in data set [1] is recorded as “no binding”.

B2: 20-bp dsDNA (dsDNA)
DNA 1: GATAAGGACTCGTATGTACC
DNA 2: GGTACATACGAGTCCTTATC
In the case of B2, the binding result in data set [1] is reported as “no binding”.

B3: 80-nt ssDNA (ssDNA)
DNA: CGCCTACATACCTCGCTCTGCTAATCCTGTTACCAGTGGCTGCTGCCAGTGGCGATAAGTCGTGTCTTACCGGGTTGGAC
As to B3, the binding result in data set [1] was “no binding”.

B4: His-SAMD9, recombinant full-length human SAMD9 (natural protein)
chain: MAKQLNLPENTDDWTKEDVNQWLESHKIDQKHREILTEQDVNGAVLKWLKKEHLVDMGITHGPAIQIEELFKELRKTAIEDSIQTSKMGKPSKNAPKDQTVSQKERRETSKQKQKGKENPDMANPSAMSTTAKGSKSLKVELIEDKIDYTKERQPSIDLTCVSYPFDEFSNPYRYKLDFSLQPETGPGNLIDPIHEFKAFTNTATATEEDVKMKFSNEVFRFASACMNSRTNGTIHFGVKDKPHGKIVGIKVTNDTKEALINHFNLMINKYFEDHQVQQAKKCIREPRFVEVLLPNSTLSDRFVIEVDIIPQFSECQYDYFQIKMQNYNNKIWEQSKKFSLFVRDGTSSKDITKNKVDFRAFKADFKTLAESRKAAEEKFRAKTNKKEREGPKLVKLLTGNQDLLDNSYYEQYILVTNKCHPDQTKHLDFLKEIKWFAVLEFDPESNINGVVKAYKESRVANLHFPSVYVEQKTTPNETISTLNLYHQPSWIFCNGRLDLDSEKYKPFDPSSWQRERASDVRKLISFLTHEDIMPRGKFLVVFLLLSSVDDPRDPLIETFCAFYQDLKGMENILCICVHPHIFQGWKDLLEARLIKHQDEISSQCISALSLEEINGTILKLKSVTQSSKRLLPSIGLSTVLLKKEEDIMTALEIICENECEGTLLEKDKNKFLEFKASKEEDFYRGGKVSWWNFYFSSESYSSPFVKRDKYERLEAMIQNCADSSKPTSTKIIHLYHHPGCGGTTLAMHILWELRKKFRCAVLKNKTVDFSEIGEQVTSLITYGAMNRQEYVPVLLLVDDFEEQDNVYLLQYSIQTAIAKKYIRYEKPLVIILNCMRSQNPEKSARIPDSIAVIQQLSPKEQRAFELKLKEIKEQHKNFEDFYSFMIMKTNFNKEYIENVVRNILKGQNIFTKEAKLFSFLALLNSYVPDTTISLSQCEKFLGIGNKKAFWGTEKFEDKMGTYSTILIKTEVIECGNYCGVRIIHSLIAEFSLEELKKSYHLNKSQIMLDMLTENLFFDTGMGKSKFLQDMHTLLLTRHRDEHEGETGNWFSPFIEALHKDEGNEAVEAVLLESIHRFNPNAFICQALARHFYIKKKDFGNALNWAKQAKIIEPDNSYISDTLGQVYKSKIRWWIEENGGNGNISVDDLIALLDLAEHASSAFKESQQQSEDREYEVKERLYPKSKRRYDTYNIAGYQGEIEVGLYTIQILQLIPFFDNKNELSKRYMVNFVSGSSDIPGDPNNEYKLALKNYIPYLTKLKFSLKKSFDFFDEYFVLLKPRNNIKQNEEAKTRRKVAGYFKKYVDIFCLLEESQNNTGLGSKFSEPLQVERCRRNLVALKADKFSGLLEYLIKSQEDAISTMKCIVNEYTFLLEQCTVKIQSKEKLNFILANIILSCIQPTSRLVKPVEKLKDQLREVLQPIGLTYQFSEPYFLASLLFWPENQQLDQHSEQMKEYAQALKNSFKGQYKHMHRTKQPIAYFFLGKGKRLERLVHKGKIDQCFKKTPDINSLWQSGDVWKEEKVQELLLRLQGRAENNCLYIEYGINEKITIPITPAFLGQLRSGRSIEKVSFYLGFSIGGPLAYDIEIV
In the case of B4, the binding result in data set [2] is on record as “binds”.

The record behind these values is article PMC12015307 (Nature Communications, 2025).
